# Laboratory results taken from patent US20200199241A1 (Chugai, published 2020).
# Where a chain is given by its changes, count along the chain named.
# B1: IgG1-F203 (antibody)
# heavy: QVQLQESGPGLVKPSETLSLTCAVSGHSISHDHAWSWVRQPPGEGLEWIGFISYSGITNYNPSLQGRVTISRDNSKNTLYLQMNSLRAEDTAVYYCARSLARTTAMDYWGEGTLVTVSSASTKGPSVFPLAPSSKSTSGGTAALGCLVKDYFPEPVTVSWNSGALTSGVHTFPAVLQSSGLYSLSSVVTVPSSSLGTQTYICNVNHKPSNTKVDKKVEPKSCDKTHTCPPCPAPELLGGPSVFLFPPKPKDTLYISRTPEVTCVVVDVSHEDPEVKFNWYVDGVEVHNAKTKPREEQYNSTYRVVSVLFVLHQDWLNGKEYKCKVSNKALPAPIEKTISKAKGQPREPQVYTLPPSRDELTKNQVSLTCLVKGFYPSDIAVEWESNGQPENNYKTTPPVLDSDGSFFLYSKLTVDKSRWQQGNVFSCSVMHEALHYHYTQKSLSLSP
# light: not shown
# notes: EU numbering; copies: 2 + 2
# B2: IgG1-F266 (antibody)
# heavy: B1 heavy with F309A, E384A, M430Y
# light: not shown
# notes: EU numbering; copies: 2 + 2
# B3: IgG1-F214 (antibody)
# heavy: B1 heavy with F309V
# light: not shown
# notes: EU numbering; copies: 2 + 2
# B4: IgG1-F256 (antibody)
# heavy: B1 heavy with Y254W, F309Q, Q313A, M430Y
# light: not shown
# notes: EU numbering; copies: 2 + 2
# B5: IgG1-F261 (antibody)
# heavy: B1 heavy with F309Q, Q313A
# light: not shown
# notes: EU numbering; copies: 2 + 2
# B6: IgG1-F251 (antibody)
# heavy: B1 heavy with F309T, M430V
# light: not shown
# notes: EU numbering; copies: 2 + 2
# B7: IgG1-F250 (antibody)
# heavy: B1 heavy with F309T, M430T
# light: not shown
# notes: EU numbering; copies: 2 + 2
# B8: IgG1-F247 (antibody)
# heavy: B1 heavy with F309T, M430Q
# light: not shown
# notes: EU numbering; copies: 2 + 2
# B9: IgG1-F213 (antibody)
# heavy: B1 heavy with F309S
# light: not shown
# notes: EU numbering; copies: 2 + 2
# B10: IgG1-F204 (antibody)
# heavy: B1 heavy with F309G
# light: not shown
# notes: EU numbering; copies: 2 + 2
# B11: IgG1-F217 (antibody)
# heavy: B1 heavy with F309T, K336L
# light: not shown
# notes: EU numbering; copies: 2 + 2
# B12: IgG1-F226 (antibody)
# heavy: B1 heavy with F309T, L316K
# light: not shown
# notes: EU numbering; copies: 2 + 2
# B13: IgG1-F229 (antibody)
# heavy: B1 heavy with R257E, F309T
# light: not shown
# notes: EU numbering; copies: 2 + 2
# B14: IgG1-F205 (antibody)
# heavy: B1 heavy with F309H
# light: not shown
# notes: EU numbering; copies: 2 + 2
# B15: IgG1-F241 (antibody)
# heavy: B1 heavy with F309T, M430G
# light: not shown
# notes: EU numbering; copies: 2 + 2
# B16: IgG1-F257 (antibody)
# heavy: B1 heavy with F309A, M430Y
# light: not shown
# notes: EU numbering; copies: 2 + 2
# B17: IgG1-F237 (antibody)
# heavy: B1 heavy with F309T, M430A
# light: not shown
# notes: EU numbering; copies: 2 + 2
# B18: IgG1-F223 (antibody)
# heavy: B1 heavy with F309T, K362H
# light: not shown
# notes: EU numbering; copies: 2 + 2
# B19: IgG1-F206 (antibody)
# heavy: B1 heavy with F309I
# light: not shown
# notes: EU numbering; copies: 2 + 2
# B20: IgG1-F240 (antibody)
# heavy: B1 heavy with F309T, M430F
# light: not shown
# notes: EU numbering; copies: 2 + 2
# B21: IgG1-F220 (antibody)
# heavy: B1 heavy with F309T, Q313H
# light: not shown
# notes: EU numbering; copies: 2 + 2
# B22: IgG1-F244 (antibody)
# heavy: B1 heavy with F309T, M430K
# light: not shown
# notes: EU numbering; copies: 2 + 2
# B23: IgG1-F258 (antibody)
# heavy: B1 heavy with F309Q, M430Y
# light: not shown
# notes: EU numbering; copies: 2 + 2
# B24: IgG1-F209 (antibody)
# heavy: B1 heavy with F309M
# light: not shown
# notes: EU numbering; copies: 2 + 2
# B25: IgG1-F249 (antibody)
# heavy: B1 heavy with F309T, M430S
# light: not shown
# notes: EU numbering; copies: 2 + 2
# B26: IgG1-F270 (antibody)
# heavy: B1 heavy with F309T, N327G, M430F
# light: not shown
# notes: EU numbering; copies: 2 + 2
# B27: IgG1-F265 (antibody)
# heavy: B1 heavy with F309T, E384A, M430Y
# light: not shown
# notes: EU numbering; copies: 2 + 2
# B28: IgG1-F253 (antibody)
# heavy: B1 heavy with F309T, M430Y
# light: not shown
# notes: EU numbering; copies: 2 + 2
# B29: IgG1-F268 (antibody)
# heavy: B1 heavy with P240A, F309T, M430F
# light: not shown
# notes: EU numbering; copies: 2 + 2
# B30: IgG1-F215 (antibody)
# heavy: B1 heavy with F309W
# light: not shown
# notes: EU numbering; copies: 2 + 2
# B31: IgG1-F254 (antibody)
# heavy: B1 heavy with Y254W, F309Q, M430Y
# light: not shown
# notes: EU numbering; copies: 2 + 2
# B32: IgG1-F259 (antibody)
# heavy: B1 heavy with D272F, F309T
# light: not shown
# notes: EU numbering; copies: 2 + 2
# B33: IgG1-F264 (antibody)
# heavy: B1 heavy with F309T, E384A
# light: not shown
# notes: EU numbering; copies: 2 + 2
# B34: IgG1-F267 (antibody)
# heavy: B1 heavy with F309Q, E384A, M430Y
# light: not shown
# notes: EU numbering; copies: 2 + 2
# B35: IgG1-F219 (antibody)
# heavy: B1 heavy with T291H, F309T
# light: not shown
# notes: EU numbering; copies: 2 + 2
# B36: IgG1-F262 (antibody)
# heavy: B1 heavy with F309A, Q313H
# light: not shown
# notes: EU numbering; copies: 2 + 2
# B37: IgG1-F246 (antibody)
# heavy: B1 heavy with F309T, M430P
# light: not shown
# notes: EU numbering; copies: 2 + 2
# B38: IgG1-F210 (antibody)
# heavy: B1 heavy with F309N
# light: not shown
# notes: EU numbering; copies: 2 + 2
# B39: IgG1-F245 (antibody)
# heavy: B1 heavy with F309T, M430N
# light: not shown
# notes: EU numbering; copies: 2 + 2
# B40: IgG1-F263 (antibody)
# heavy: B1 heavy with F309Q, Q313H
# light: not shown
# notes: EU numbering; copies: 2 + 2
# B41: IgG1-F230 (antibody)
# heavy: B1 heavy with F309T, P389E
# light: not shown
# notes: EU numbering; copies: 2 + 2
# B42: IgG1-F228 (antibody)
# heavy: B1 heavy with F309T, L311E
# light: not shown
# notes: EU numbering; copies: 2 + 2
# B43: IgG1-F225 (antibody)
# heavy: B1 heavy with F309T, L316R
# light: not shown
# notes: EU numbering; copies: 2 + 2
# B44: IgG1-F216 (antibody)
# heavy: B1 heavy with F309Y
# light: not shown
# notes: EU numbering; copies: 2 + 2
# B45: IgG1-F227 (antibody)
# heavy: B1 heavy with N288E, F309T
# light: not shown
# notes: EU numbering; copies: 2 + 2
# B46: IgG1-F221 (antibody)
# heavy: B1 heavy with F309T, D314H
# light: not shown
# notes: EU numbering; copies: 2 + 2
# B47: IgG1-F222 (antibody)
# heavy: B1 heavy with F309T, N317H
# light: not shown
# notes: EU numbering; copies: 2 + 2
# B48: IgG1-F255 (antibody)
# heavy: B1 heavy with Y254W, F309T, Q313A, M430Y
# light: not shown
# notes: EU numbering; copies: 2 + 2
# B49: IgG1-F236 (antibody)
# heavy: B1 heavy with K250I, Y254M, F309T, M430L
# light: not shown
# notes: EU numbering; copies: 2 + 2
# B50: IgG1-F238 (antibody)
# heavy: B1 heavy with F309T, M430D
# light: not shown
# notes: EU numbering; copies: 2 + 2
# B51: IgG1-F252 (antibody)
# heavy: B1 heavy with F309T, M430W
# light: not shown
# notes: EU numbering; copies: 2 + 2
# B52: IgG1-F242 (antibody)
# heavy: B1 heavy with F309T, M430H
# light: not shown
# notes: EU numbering; copies: 2 + 2
# B53: IgG1-F211 (antibody)
# heavy: B1 heavy with F309P
# light: not shown
# notes: EU numbering; copies: 2 + 2
# B54: IgG1-F218 (antibody)
# heavy: B1 heavy with F309T, G387H
# light: not shown
# notes: EU numbering; copies: 2 + 2
# B55: IgG1-F212 (antibody)
# heavy: B1 heavy with F309R
# light: not shown
# notes: EU numbering; copies: 2 + 2
# B56: IgG1-F260 (antibody)
# heavy: B1 heavy with F309A, Q313A
# light: not shown
# notes: EU numbering; copies: 2 + 2
# B57: IgG1-F243 (antibody)
# heavy: B1 heavy with F309T, M430I
# light: not shown
# notes: EU numbering; copies: 2 + 2
# B58: IgG1-F208 (antibody)
# heavy: B1 heavy with F309L
# light: not shown
# notes: EU numbering; copies: 2 + 2
# B59: IgG1-F272 (antibody)
# heavy: B1 heavy with F309T, E382A, M430F
# light: not shown
# notes: EU numbering; copies: 2 + 2
# B60: IgG1-F269 (antibody)
# heavy: B1 heavy with V307A, F309T, M430F
# light: not shown
# notes: EU numbering; copies: 2 + 2
# Molecular target: T1, human FcRn (soluble human FcRn complexed with β2-microglobulin) (human, UniProt P61769 21-119, limits assumed)
# T1 construct: also called hFcRn
# Test: SPR, pH 7.0;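 also: antibodies captured on a Protein L sensor chip with human FcRn injected as analyte, KD calculated from fitted association and dissociation rate constants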
row,Kd [nM],Binder
1,240,B1
2,470,B2
3,170,B3
4,54,B4
5,84,B5
6,190,B6
7,290,B7
8,440,B8
9,230,B9
10,210,B10
11,230,B11
12,540,B12
13,510,B13
14,200,B14
15,1500,B15
16,500,B16
17,230,B17
18,270,B18
19,230,B19
20,720,B20

row,Kd [nM],Binder
1,250,B21
2,1300,B22
3,320,B23
4,130,B24
5,640,B25
6,660,B26
7,680,B27
8,710,B28
9,630,B29
10,96,B30
11,75,B31
12,280,B32
13,280,B33
14,320,B34
15,250,B35
16,190,B36
17,1100,B37
18,290,B38
19,470,B39
20,110,B40

row,Kd [nM],Binder
1,250,B41
2,230,B42
3,1500,B43
4,230,B44
5,120,B45
6,310,B46
7,340,B47
8,110,B48
9,890,B49
10,740,B50
11,1000,B51
12,850,B52
13,240,B53
14,260,B54
15,680,B55
16,130,B56
17,180,B57
18,390,B58
19,680,B59
20,520,B60
